Source: publication PMC3759425, “Insights into the Cross-Immunity Mechanism within Effector Families of Bacteria Type VI Secretion System from the Structure of StTae4-EcTai4 Complex” (PLoS ONE, 2013)

B1: EcTai4 (type VI amidase immunity 4 from Enterobacter cloacae), residues 19-117 (domain or fragment)
chain: QTLPDISTFSQQQIFENWVQNRCIGKIADSKSLKEDADASAAAWLEASNLPAENFEKADEVIVSLLKQKVGGTEPGHYQILKCTLIANSDAIRPLKSSK
notes: Tai4, type VI amidase immunity 4, E. cloacae, residues 19-117 without the N-terminal 18-residue signal peptide, amplified from genomic DNA; pET21a; Se-Met-labelled protein was used for the crystal structure; The construct of the His-EcTai4 of the pull-down is not described on its own; also called His-EcTai4; His-tag EcTai4; source: E. coli BL21 (DE3), co-expressed with StTae4, purified (crystal, …)
B2: StTae4 (type VI amidase effector 4 from Salmonella typhimurium) (enzyme)
chain: MNRPSFNEAWLAFRKVNHSVADVGSIIGGNVGKNITGGYFQNACPIRMSYVLNATGFPIARNSPYAKVSGADNKFYIYRVNDMIDYLTHTMGKPDLIVNNPKQSDFIGKKGIIVVKGHGWSNARGHVTLWNGSICSDQCHLLNDPDNGPFVPEVGTLWILP
notes: Tae4, type VI amidase effector 4, S. Typhimurium, full length, amplified from genomic DNA; cloned into NcoI/XhoI of pET28at-plus (introduces an N-terminal TEV cleavage site); Se-Met-labelled protein was used for the crystal structure; The vector adds an N-terminal TEV cleavage site; the pull-down methods call the effectors 'native effector proteins'; source: E. coli BL21 (DE3), co-expressed with …

What was measured:
[1] = target: the molecule itself; test: SAXS; purified complex in solution at 1, 3 and 5 mg/ml; theoretical curve of one tetramer of the crystal fitted to the experimental data, discrepancy 1.625
[2] = target: B1; test: as above; details: both partners purified

Which “stoichiometry N” value [1] does the source give for B1 here?
Its value is 2.

With B2 as the binder, how does the “stoichiometry N” value [2] read?
The value was 2 Tae4 molecules per Tai4 homodimer.
